Data from patent US10954305B2 (Immunomedics, Inc., priority 2016, dated 2021).
“Also recorded” adds a separate entry of the source.

What was measured:
[1] = test system: COLO 205 tumors; assay: COLO 205 xenograft therapy; conditions: 0.4 mg/kg, q4dx8; 28-day treatment period
Description: NCr female athymic nude (nu/nu) mice, 4 to 8 weeks old, and male Swiss-Webster mice, 10 weeks old, were purchased from Taconic Farms. […] Tumor volume (TV) was determined by measurements in 2 dimensions using calipers, with volumes defined as: L×w^2/2, where L is the longest dimension of the tumor and w is the shortest. […] This dosing frequency reflected a consideration of the conjugate's serum half-life in vitro, to allow a more continuous exposure to the ADC.

[2] = CDC activity; format: cell-based
[3] = test system: SK-MES-1 human squamous cell lung tumors; assay: SK-MES-1 xenograft therapy; format: in vivo, nude mice; conditions: 0.4 mg/kg; 28 days
Description: Therapeutic efficacy of hRS7-SN-38 ADC in several solid tumor-xenograft disease models.
Tumor volume (TV) was determined by measurements in 2 dimensions using calipers, with volumes defined as: L×w^2/2, where L is the longest dimension of the tumor and w is the shortest.

[4] = molecular target: T1, recombinant human Trop-2 (Homo sapiens, UniProt P09758); assay: Trop-2 ELISA; format: binding
T1 construct: purchased Sino Biological, Inc. 10428-H09H
T1 sequence (P09758 27-323): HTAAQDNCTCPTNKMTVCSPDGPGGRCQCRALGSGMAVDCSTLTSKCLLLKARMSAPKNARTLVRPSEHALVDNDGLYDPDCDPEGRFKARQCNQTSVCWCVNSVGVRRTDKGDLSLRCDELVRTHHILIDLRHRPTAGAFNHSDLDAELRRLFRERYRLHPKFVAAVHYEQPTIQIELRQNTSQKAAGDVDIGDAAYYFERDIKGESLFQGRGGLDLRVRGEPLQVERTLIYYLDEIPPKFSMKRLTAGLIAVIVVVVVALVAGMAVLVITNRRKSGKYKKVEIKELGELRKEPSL
Description: (§1) Recombinant human Trop-2 with a His-tag (Sino Biological, Inc., Bejing, China; Cat #10428-H09H) and recombinant mouse Trop-2 with a His-Tag (Sino Biological, Inc., Cat #50922-MO8H) were plated onto Ni-NTA Hissorb strips (Qiagen GmbH Cat #35023) at 1 μg for 1 h at room temperature. The plate was washed four times with PBS-Tween (0.05%) wash buffer. Serial dilutions of hRS7 were made in 1% BSA-PBS dilution buffer to a test range of 0.1 ng/mL to 10 μg/mL. The plates were then incubated for 2 h at room temperature before being washed four times followed by the addition of a peroxidase conjugated secondary antibody (goat anti-human, Fc fragment specific; Jackson Immunoresearch Cat #109-036-098). After a 45-min incubation, the plate was washed and a substrate solution (o-phenylenediamine dihydrochloride (OPD); Sigma, Cat #P828) added to all the wells. Plates were incubated in the dark for 15 min before the reaction was stopped with 4N sulfuric acid. The plates were read at 450 nm on Biotek ELX808 plate reader. Data were analyzed and graphed using Prism GraphPad Software (v4.03) (Advanced Graphics Software, Inc.; Encinitas, Calif.).

[5] = molecular target: T2, recombinant mouse Trop-2 (Mus musculus, UniProt Q8BGV3); assay: Trop-2 ELISA; format: binding
T2 construct: purchased Sino Biological, Inc. 50922-MO8H
T2 sequence (Q8BGV3 25-317): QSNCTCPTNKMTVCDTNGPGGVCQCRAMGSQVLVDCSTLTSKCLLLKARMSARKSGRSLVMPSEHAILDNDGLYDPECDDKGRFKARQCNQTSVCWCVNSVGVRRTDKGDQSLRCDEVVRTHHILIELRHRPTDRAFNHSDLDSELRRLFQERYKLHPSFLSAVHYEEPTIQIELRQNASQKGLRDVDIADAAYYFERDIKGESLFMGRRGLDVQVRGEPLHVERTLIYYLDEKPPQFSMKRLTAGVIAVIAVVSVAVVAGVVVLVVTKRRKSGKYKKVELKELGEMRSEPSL
Description: as §1

[6] = Phase I/II clinical trial of IMMU-132, immunogenicity; format: in vivo, human; conditions: repeated dosing
[7] = Phase I/II clinical trial of IMMU-132, adverse events; format: in vivo, human; conditions: for dose-limiting toxicity: Phase I
Source text: The maximum tolerated dose (MTD) was judged on the patient's tolerance to the first treatment cycle.

[8] = mouse, in vivo
[9] = storage stability of lyophilized IMMU-132; format: physicochemical
Source text: HIC-HPLC results were confirmed by liquid chromatography-mass spectrometry (LC-MS) (not shown).

[10] = test system: urothelial cancer; assay: Phase I/II clinical trial of IMMU-132, urothelial; format: in vivo, human; conditions: 11 assessable patients, 8 or 10 mg/kg
[11] = test system: colorectal cancer; assay: Phase I/II clinical trial of IMMU-132, CRC; format: in vivo, human
[12] = test system: stage IV metastatic gastric cancer; assay: therapy of a gastric cancer patient; format: in vivo, human; conditions: after another 5 courses
[13] = test system: non-small cell lung cancer; assay: Phase I/II clinical trial of IMMU-132, NSCLC; format: in vivo, human
Description: Out of 29 patients, there were 8 PR and 13 SD. […] The median time to progression was […], with a range from 1.8 to 15.5+ months and 47% of patients still undergoing treatment. Median PFS was 3.4 months at 8 mg/kg and 3.8 months at 10 mg/kg. However, studies are still ongoing and the median progression-free survival numbers are likely to improve.

[14] = test system: HCC1395 (Trop-2−); assay: dsDNA breaks, rH2AX flow cytometry; format: cell-based, human; conditions: untreated baseline 122
Description: For drug activity testing, HCC1806 and HCC1395 TNBC cell lines cells were seeded in 6-well plates at 5×10^5 cells/well and held at 37° C. overnight. […] The signal intensity of rH2AX was measured by flow cytometry using a BD FACSCalibur (BD Biosciences, San Jose, Calif.).
The cells were then washed to remove unbound conjugate, and then incubated overnight at 37° C.

[15] = listed as sacituzumab govitecan

With hRS7 IgG the “tumor volume (TV)” value [1] was 1.77±0.93 cm^3, the CDC activity [2] was “no CDC activity” and the “tumor volume (TV)” value [3] was 1.30±1.08 cm^3. For the same substance, the Kd [4] was 0.3 nM and the cross-reactivity [5] was “no cross-reactivity with the murine Trop-2”.

For IMMU-132, the “anti-hRS7 / anti-SN-38 antibody response” value [6] was “No anti-hRS7 or anti-SN-38 antibodies were detected; also recorded: no anti-hRS7 or anti-SN-38 antibody response has been detected; also recorded: none of the patients developed an antibody response to IMMU-132 or SN-38”, the “anti-hRS7 / anti-SN-38 antibody response” value [6, 15] was “no antibody response to the hRS7 IgG or SN-38 was detected” and the “grade-3 diarrhea, patients” value ([7]; 10 mg/kg) was 1. The “Dose-limiting toxicity 1st cycle, patients” value ([7]; 18 mg/kg, 3 treated) was 2, the “neutropenia >Grade 3” value ([7]; 49 patients reporting related AE) was 28% and the “incidence of Grade 3 or higher adverse events other than neutropenia” value ([7]; 261 patients enrolled) was “less than 10%”. The “Abdominal pain, Grade 3, n (%)” value ([7]; N = 47) was 0, the “Abdominal pain, Grade 4, n (%)” value ([7]; N = 47) was 0 and the “Anemia, Grade 3, n (%)” value ([7]; N = 47) was 2 (4%). For the same substance, the “Anemia, Grade 4, n (%)” value ([7]; N = 47) was 0, the “Deep vein thrombosis, Grade 3, n (%)” value ([7]; N = 47) was 1 (2%) and the “Deep vein thrombosis, Grade 4, n (%)” value ([7]; N = 47) was 0. The “Diarrhea, Grade 3, n (%)” value ([7]; N = 47) was 4 (9%), the “Diarrhea, Grade 4, n (%)” value ([7]; N = 47) was 0 and the “Dysgeusia, Grade 3, n (%)” value ([7]; N = 47) was 0. For the same substance, the “Dysgeusia, Grade 4, n (%)” value ([7]; N = 47) was 0, the “Fatigue, Grade 3, n (%)” value ([7]; N = 47) was 4 (9%) and the “Fatigue, Grade 4, n (%)” value ([7]; N = 47) was 0. The “Febrile Neutropenia, Grade 3, n (%)” value ([7]; N = 47) was 1 (2%), the “Febrile Neutropenia, Grade 4, n (%)” value ([7]; N = 47) was 2 (4%) and the “Hypokalemia, Grade 3, n (%)” value ([7]; N = 47) was 1 (2%). The “Hypokalemia, Grade 4, n (%)” value ([7]; N = 47) was 0, the “Nausea, Grade 3, n (%)” value ([7]; N = 47) was 0 and the “Nausea, Grade 4, n (%)” value ([7]; N = 47) was 0. The “Neutropenia, Grade 3, n (%)” value ([7]; N = 47) was 11 (24%), the “Neutropenia, Grade 4, n (%)” value ([7]; N = 47) was 2 (4%) and the “Pyrexia, Grade 3, n (%)” value ([7]; N = 47) was 0. The “Pyrexia, Grade 4, n (%)” value ([7]; N = 47) was 0, the “Vomiting, Grade 3, n (%)” value ([7]; N = 47) was 1 (2%) and the “Vomiting, Grade 4, n (%)” value ([7]; N = 47) was 0. For the same substance, the “WBC Decrease, Grade 3, n (%)” value ([7]; N = 47) was 1 (2%), the “WBC Decrease, Grade 4, n (%)” value ([7]; N = 47) was 0 and the dose-limiting toxicity [7] was “neutropenia”. For the same substance, the dose-limiting toxicity [7, 15] was “Neutropenia”, the “chloride levels, range” value [8] was 116 to 127 mmol/L and the “glucose levels, range” value ([8]; 8 mg/kg) was 273 to 320 mg/dL. The “stability once prepared and lyophilized” value [9] was “stable for several years”, the PR [10] was 6 and the PD ([11]; of 18 assessable patients) was 6. The PR ([11]; of 18 assessable patients) was 1, the “maximum reduction in target lesions” value ([11]; person, after 10 months) was 65% and the “plasma CEA after treatment” value ([11]; person, from 781 ng/mL) was 26.5 ng/mL. The “disease reduction by RECIST at follow-up” value [12] was “about 35%”, the PD ([13]; of 5 assessable patients) was 1 and the PR ([13]; of 5 assessable patients) was 1. For the same substance, the PR ([13]; out of 29 patients, 8 or 10 mg/kg) was 8, the “primary target lesion at first CT” value ([13]; person, from 5.6 cm, after 6 doses) was 3.2 cm and the “Median fluorescence intensity (rH2AX)” value [14] was 123.
